Test results published in US20150104448A1 (TRUE NORTH THERAPEUTICS, published 2015).

T1: Inactive-C1s (Homo sapiens, UniProt P09871)
T1 construct: proenzyme (pro-C1s); also called pro-C1s
T1 sequence (single chain, looked up): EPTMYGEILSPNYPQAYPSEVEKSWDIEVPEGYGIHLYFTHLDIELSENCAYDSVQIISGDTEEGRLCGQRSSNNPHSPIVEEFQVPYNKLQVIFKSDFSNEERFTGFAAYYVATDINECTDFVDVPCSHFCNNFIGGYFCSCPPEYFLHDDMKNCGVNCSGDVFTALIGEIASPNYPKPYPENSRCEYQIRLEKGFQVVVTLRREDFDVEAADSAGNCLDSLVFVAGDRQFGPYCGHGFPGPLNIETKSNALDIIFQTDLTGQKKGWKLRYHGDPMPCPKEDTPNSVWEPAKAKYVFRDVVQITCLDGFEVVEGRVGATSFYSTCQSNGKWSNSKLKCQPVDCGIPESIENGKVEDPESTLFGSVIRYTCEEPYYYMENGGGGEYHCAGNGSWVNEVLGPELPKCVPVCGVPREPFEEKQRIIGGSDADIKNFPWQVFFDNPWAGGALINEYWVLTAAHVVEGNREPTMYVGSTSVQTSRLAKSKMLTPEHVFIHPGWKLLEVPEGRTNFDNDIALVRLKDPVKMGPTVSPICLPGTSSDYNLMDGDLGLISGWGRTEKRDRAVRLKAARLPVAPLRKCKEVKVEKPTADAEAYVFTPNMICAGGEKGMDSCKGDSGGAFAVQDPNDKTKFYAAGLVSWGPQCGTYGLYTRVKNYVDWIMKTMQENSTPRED

T2: purified human activated C1s protein, two-chain form (Homo sapiens, UniProt P09871 16-688)
T2 construct: Also used here for C1s acting in human serum assays; also called human C1s; active C1s
T2 sequence: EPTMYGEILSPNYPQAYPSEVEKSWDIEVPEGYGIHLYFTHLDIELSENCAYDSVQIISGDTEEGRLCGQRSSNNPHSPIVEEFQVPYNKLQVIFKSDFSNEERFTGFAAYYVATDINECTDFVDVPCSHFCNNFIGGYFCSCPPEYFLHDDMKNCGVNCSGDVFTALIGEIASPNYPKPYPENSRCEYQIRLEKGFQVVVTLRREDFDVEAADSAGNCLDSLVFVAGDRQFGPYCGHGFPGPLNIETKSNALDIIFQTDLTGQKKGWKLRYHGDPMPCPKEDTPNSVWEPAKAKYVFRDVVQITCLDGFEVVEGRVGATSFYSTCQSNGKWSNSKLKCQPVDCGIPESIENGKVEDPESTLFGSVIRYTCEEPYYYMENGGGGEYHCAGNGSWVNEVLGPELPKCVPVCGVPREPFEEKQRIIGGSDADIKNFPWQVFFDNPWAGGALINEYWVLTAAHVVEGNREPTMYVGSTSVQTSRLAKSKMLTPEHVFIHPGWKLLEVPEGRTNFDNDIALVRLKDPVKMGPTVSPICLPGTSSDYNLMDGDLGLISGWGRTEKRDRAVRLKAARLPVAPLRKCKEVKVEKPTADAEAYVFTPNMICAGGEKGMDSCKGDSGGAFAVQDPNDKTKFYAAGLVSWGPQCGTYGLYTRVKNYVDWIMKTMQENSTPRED


Assays:
Inactive-C1s = molecular target: T1, Inactive-C1s; assay: kinetic binding measurement, method not stated; Table 10, pro-C1s
[1] = molecular target: T2, purified human activated C1s protein, …; assay: kinetic binding measurement, method not stated; Table 9, activated C1s

Kd (Inactive-C1s)	koff (Inactive-C1s)	kon (Inactive-C1s)	Kd [1]	koff [1]	kon [1]	Binder
0.229 nM	0.000249 s⁻¹	1.09e+06 M⁻¹ s⁻¹	0.262 nM	0.000274 s⁻¹	1.05e+06 M⁻¹ s⁻¹	VH1/Vk2 (antibody, V domains shown, member of group m7; also called VH1/Vκ2; VH variant 1 + Vk variant 2) VH: EVMLVESGGGLVKPGGSLRLSCAASGFTFSNYAMSWVRQAPGKGLEWVATISSGGSHTYYLDSVKGRFTISRDNSKDTLYLQMSSLRAEDTALYYCARLFTGYAMDYWGQGTSVTVSS VL: QIVLTQSPATLSLSPGERATMSCTASSSVSSSYLHWYQQKPGKAPKLWIYSTSNLASGVPSRFSGSGSGTDYTLTISSLQPEDFATYYCHQYYRLPPITFGQGTKLEIK
0.291 nM	0.000315 s⁻¹	1.08e+06 M⁻¹ s⁻¹	0.274 nM	0.000311 s⁻¹	1.13e+06 M⁻¹ s⁻¹	VH3/Vk2 (antibody, V domains shown, member of group m7; also called VH3/Vκ2; VH variant 3 + Vk variant 2) VH: EVMLVESGGGLVKPGGSLRLSCAASGFTFSNYAMSWVRQAPGKGLEWVATISSGGSHTYYLDSVKGRFTISRDNSKDTLYLQMSSLRAEDTALYYCARLFTGYAMDYWGQGTSVTVSS VL: QIVLTQSPATLSLSPGERATMSCTASSSVSSSYLHWYQQKPGKAPKLWIYSTSNLASGVPSRFSGSGSGTDYTLTISSLQPEDFATYYCHQYYRLPPITFGQGTKLEIK
0.252 nM	0.000262 s⁻¹	1.04e+06 M⁻¹ s⁻¹	0.256 nM	0.000274 s⁻¹	1.07e+06 M⁻¹ s⁻¹	VH2/Vk1 (antibody, V domains shown, member of group m7; also called VH2/Vκ1; VH variant 2 + Vk variant 1) VH: EVMLVESGGGLVKPGGSLRLSCAASGFTFSNYAMSWVRQAPGKGLEWVATISSGGSHTYYLDSVKGRFTISRDNSKDTLYLQMNSLRAEDTALYYCARLFTGYAMDYWGQGTLVTVSS VL: QIVLTQSPAILSLSPGERATMSCTASSSVSSSYLHWYQQKPGKAPKLWIYSTSNLASGVPSRFSGSGSGTFYTLTISSLQAEDFATYYCHQYYRLPPITFGQGTKLEIK
0.271 nM	0.000269 s⁻¹	993000 M⁻¹ s⁻¹	0.273 nM	0.00028 s⁻¹	1.03e+06 M⁻¹ s⁻¹	VH2/Vk2 (antibody, V domains shown, member of group m7; also called VH2/Vκ2; VH variant 2 + Vk variant 2) VH: EVMLVESGGGLVKPGGSLRLSCAASGFTFSNYAMSWVRQAPGKGLEWVATISSGGSHTYYLDSVKGRFTISRDNSKDTLYLQMNSLRAEDTALYYCARLFTGYAMDYWGQGTLVTVSS VL: QIVLTQSPATLSLSPGERATMSCTASSSVSSSYLHWYQQKPGKAPKLWIYSTSNLASGVPSRFSGSGSGTDYTLTISSLQPEDFATYYCHQYYRLPPITFGQGTKLEIK
0.262 nM	0.000263 s⁻¹	1.01e+06 M⁻¹ s⁻¹	0.262 nM	0.000264 s⁻¹	1e+06 M⁻¹ s⁻¹	VH4/Vk2 (antibody, V domains shown, member of group m7; also called VH4/Vκ2; VH variant 4 + Vk variant 2) VH: EVQLVESGGGLVKPGGSLRLSCAASGFTFSNYAMSWVRQAPGKGLEWVATISSGGSHTYYLDSVKGRFTISRDNSKNTLYLQMNSLRAEDTALYYCARLFTGYAMDYWGQGTLVTVSS VL: QIVLTQSPATLSLSPGERATMSCTASSSVSSSYLHWYQQKPGKAPKLWIYSTSNLASGVPSRFSGSGSGTDYTLTISSLQPEDFATYYCHQYYRLPPITFGQGTKLEIK
0.191 nM	0.000198 s⁻¹	1.04e+06 M⁻¹ s⁻¹	0.235 nM	0.000228 s⁻¹	973000 M⁻¹ s⁻¹	VH1/Vk1 (antibody, V domains shown, member of group m7; also called VH1/Vκ1; VH variant 1 + Vk variant 1) VH: EVMLVESGGGLVKPGGSLRLSCAASGFTFSNYAMSWVRQAPGKGLEWVATISSGGSHTYYLDSVKGRFTISRDNSKDTLYLQMSSLRAEDTALYYCARLFTGYAMDYWGQGTSVTVSS VL: QIVLTQSPAILSLSPGERATMSCTASSSVSSSYLHWYQQKPGKAPKLWIYSTSNLASGVPSRFSGSGSGTFYTLTISSLQAEDFATYYCHQYYRLPPITFGQGTKLEIK
0.303 nM	0.000285 s⁻¹	941000 M⁻¹ s⁻¹	0.376 nM	0.000343 s⁻¹	914000 M⁻¹ s⁻¹	VH1/Vk3 (antibody, V domains shown, member of group m7; also called VH1/Vκ3; VH variant 1 + Vk variant 3) VH: EVMLVESGGGLVKPGGSLRLSCAASGFTFSNYAMSWVRQAPGKGLEWVATISSGGSHTYYLDSVKGRFTISRDNSKDTLYLQMSSLRAEDTALYYCARLFTGYAMDYWGQGTSVTVSS VL: QIVLTQSPATLSLSPGERATLSCTASSSVSSSYLHWYQQKPGKAPKLWIYSTSNLASGVPSRFSGSGSGTDYTLTISSLQPEDFATYYCHQYYRLPPITFGQGTKLEIK
0.252 nM	0.000255 s⁻¹	1.02e+06 M⁻¹ s⁻¹	0.246 nM	0.000254 s⁻¹	1.03e+06 M⁻¹ s⁻¹	VH3/Vk1 (antibody, V domains shown, member of group m7; also called VH3/Vκ1; VH variant 3 + Vk variant 1) VH: EVMLVESGGGLVKPGGSLRLSCAASGFTFSNYAMSWVRQAPGKGLEWVATISSGGSHTYYLDSVKGRFTISRDNSKDTLYLQMSSLRAEDTALYYCARLFTGYAMDYWGQGTSVTVSS VL: QIVLTQSPAILSLSPGERATMSCTASSSVSSSYLHWYQQKPGKAPKLWIYSTSNLASGVPSRFSGSGSGTFYTLTISSLQAEDFATYYCHQYYRLPPITFGQGTKLEIK
0.331 nM	0.000351 s⁻¹	1.06e+06 M⁻¹ s⁻¹	0.335 nM	0.00036 s⁻¹	1.08e+06 M⁻¹ s⁻¹	VH3/Vk3 (antibody, V domains shown, member of group m7; also called VH3/Vκ3; VH variant 3 + Vk variant 3) VH: EVMLVESGGGLVKPGGSLRLSCAASGFTFSNYAMSWVRQAPGKGLEWVATISSGGSHTYYLDSVKGRFTISRDNSKDTLYLQMSSLRAEDTALYYCARLFTGYAMDYWGQGTSVTVSS VL: QIVLTQSPATLSLSPGERATLSCTASSSVSSSYLHWYQQKPGKAPKLWIYSTSNLASGVPSRFSGSGSGTDYTLTISSLQPEDFATYYCHQYYRLPPITFGQGTKLEIK
0.278 nM	0.000306 s⁻¹	1.1e+06 M⁻¹ s⁻¹	0.298 nM	0.00031 s⁻¹	1.04e+06 M⁻¹ s⁻¹	VH4/Vk3 (antibody, V domains shown, member of group m7; also called VH4/Vκ3; VH variant 4 + Vk variant 3) VH: EVQLVESGGGLVKPGGSLRLSCAASGFTFSNYAMSWVRQAPGKGLEWVATISSGGSHTYYLDSVKGRFTISRDNSKNTLYLQMNSLRAEDTALYYCARLFTGYAMDYWGQGTLVTVSS VL: QIVLTQSPATLSLSPGERATLSCTASSSVSSSYLHWYQQKPGKAPKLWIYSTSNLASGVPSRFSGSGSGTDYTLTISSLQPEDFATYYCHQYYRLPPITFGQGTKLEIK
0.284 nM	0.000275 s⁻¹	968000 M⁻¹ s⁻¹	0.296 nM	0.000281 s⁻¹	948000 M⁻¹ s⁻¹	VH2/Vk3 (antibody, V domains shown, member of group m7; also called VH2/Vκ3; VH variant 2 + Vk variant 3) VH: EVMLVESGGGLVKPGGSLRLSCAASGFTFSNYAMSWVRQAPGKGLEWVATISSGGSHTYYLDSVKGRFTISRDNSKDTLYLQMNSLRAEDTALYYCARLFTGYAMDYWGQGTLVTVSS VL: QIVLTQSPATLSLSPGERATLSCTASSSVSSSYLHWYQQKPGKAPKLWIYSTSNLASGVPSRFSGSGSGTDYTLTISSLQPEDFATYYCHQYYRLPPITFGQGTKLEIK
0.291 nM	0.000319 s⁻¹	1.1e+06 M⁻¹ s⁻¹	0.228 nM	0.000271 s⁻¹	1.19e+06 M⁻¹ s⁻¹	VH4/Vk1 (antibody, V domains shown, member of group m7; also called VH4/Vκ1; VH variant 4 + Vk variant 1) VH: EVQLVESGGGLVKPGGSLRLSCAASGFTFSNYAMSWVRQAPGKGLEWVATISSGGSHTYYLDSVKGRFTISRDNSKNTLYLQMNSLRAEDTALYYCARLFTGYAMDYWGQGTLVTVSS VL: QIVLTQSPAILSLSPGERATMSCTASSSVSSSYLHWYQQKPGKAPKLWIYSTSNLASGVPSRFSGSGSGTFYTLTISSLQAEDFATYYCHQYYRLPPITFGQGTKLEIK
